According to patent US10398760B2, “Method of treating pain using agents that promote neuronal differentiation” (priority 2016, dated 2019):
Entries after “also recorded” stand apart in the source; their conditions may differ.

Assays:
[1] = system: rats subjected to chronic constriction injury of the sciatic nerve (CCI) or Sham surgery; test: Mechanical nociceptive sensitivity (von Frey filaments) in CCI and Sham rats; assay type: in vivo, rat
[2] = system: Mash1, DCX and Notch3 expression in spinal cord gray matter; test: Immunofluorescence quantification of immature neuron markers in spinal cord gray matter; assay type: in vivo, rat; settings: vs CCI+Veh
[3] = system: rats subjected to chronic constriction injury of the sciatic nerve (CCI) or Sham surgery; test: Thermal nociceptive sensitivity (Hargreaves method, radiant heat withdrawal latency) in CCI and Sham rats; assay type: in vivo, rat
[4] = system: human with chronic pain as a result of injury; test: Use of Dihexa to treat chronic pain in a human (numeric rating scale, dolorimetric); assay type: in vivo; settings: oral; for pain reported by the subject: 200 miligrams/day
Procedure: Dihexa (N-hexanoic-Tyr-Ile-(6)aminohexanoic amide), an activator of c-Met receptor, is administered orally, 200 miligrams/day for 4 weeks, to a human for the purpose of treating pain. The subject is having chronic pain for the previous 6 months, as a result of injury. Before the beginning of treatment, and weekly thereafter for 6 months, the subject is tested for pain levels using a combination of subjective (numeric rating scale) and physiological (dolorimetric) evaluation methods.

[5] = system: human patient diagnosed with fibromyalgia; test: Use of NT4 to treat pain in a human patient diagnosed with fibromyalgia; assay type: in vivo; settings: for pain reported by the patient: injected into the spinal canal every other day for 3 weeks
Procedure: NT4 is a TrkB ligand and inducer of neuronal differentiation that may be used to treat pain. NT4 (200 microliters, 1 microgram/ml) is injected every other day for 3 weeks (10 injections total) into the spinal canal of a human patient diagnosed with fibromyalgia. […] To prevent pain reoccurrence, a maintenance dose of 7,8-dihydroxy-4′-dimethylaminoflavone-8-O-glucozide (3-4 grams per day for 4-5 consecutive days) may be administered every month.

[6] = intraperitoneal DHF treatment delayed for 3 weeks after CCI
[7] = intrathecal BDNF treatment delayed for 3 weeks after CCI
[8] = intrathecal injection every other day for first 3 weeks after CCI/Sham surgery, tested weekly, vs vehicle

In the case of `O=c1cc(-c2ccccc2)oc2c(O)c(O)ccc12` [DHF, 7,8-dihydroxyflavone, reference compound], the “duration of the decrease in pain” value ([1]; DHF intraperitoneal treatment applied for only 3 weeks) is reported as 3 months, the “long-term mechanical pain sensitivity” value [1, 6] is reported as “extended long-term decrease in mechanical and thermal pain susceptibility; also recorded: long-term decrease in pain sensitivity” and the “mechanical pain sensitivity / mechanical pain threshold” value ([1]; intraperitoneal injection every other day for 3 weeks immediately after CCI/Sham surgery, vs vehicle) is reported as “reduces long-term mechanical pain susceptibility; also recorded: long-term increase in mechanical pain threshold (decrease in pain sensitivity)”. The “expression of immature neuron markers Mash1, DCX and Notch3” value ([2]; intraperitoneal injection every other day for 3 weeks after CCI, spinal cords taken after 4 weeks) was “reduces the expression of Mash1, DCX and Notch3; also recorded: reducing the expression of all three markers” and the “long-term thermal pain sensitivity” value [3, 6] was “extended long-term decrease in mechanical and thermal pain susceptibility; also recorded: long-term decrease in pain sensitivity”.

With “N-hexanoic-Tyr-Ile-(6)aminohexanoic amide [Dihexa]” the “time until increased pain sensitivity may reoccur” value ([4]; 200 miligrams/day for 4 weeks) was 3 months, the “pain reported by the subject” value ([4]; after 2 weeks of treatment) was “decreased pain” and the “pain reported by the subject” value ([4]; after 4 weeks of treatment) was “pain sensitivity is back to normal levels”.

B1: BDNF: brain-derived neurotrophic factor, TrkB ligand and promoter of neuronal differentiation, injected intrathecally (protein)
chain: HSDPARRGELSVCDSISEWVTAADKKTAVDMSGGTVTVLEKVPVSKGQLKQYFYETKCNPMGYTKEGCRGIDKRHWNSQCRTTQSYVRALTMDSKKRIGWRFIRIDTSCVCTLTIKRGR
For B1, the “duration of the decrease in pain” value ([1]; BDNF intrathecal treatment applied for only 3 weeks) was 3 months, the “long-term mechanical pain sensitivity” value [1, 7] was “long-term reduction in pain and pain susceptibility; also recorded: long-term decrease in pain sensitivity” and the “mechanical nociceptive (pain) sensitivity / mechanical pain threshold” value [1, 8] was “reduction in mechanical pain susceptibility (increased pain threshold); also recorded: long-term increase in mechanical pain threshold (decrease in pain sensitivity)”. For the same molecule, the “expression of immature neuron markers Mash1, DCX and Notch3” value ([2]; intrathecal injection every other day for 3 weeks after CCI, spinal cords taken at week 4) was “reduction in the expression of Mash1, DCX and Notch3; also recorded: reducing the expression of all three markers”, the “initial short-term increase in thermal pain sensitivity (duration)” value [3, 7] was 2 to 3 days and the “long-term thermal pain sensitivity” value [3, 7] was “reduced thermal pain susceptibility; also recorded: long-term decrease in pain sensitivity”. The “thermal nociceptive (pain) sensitivity” value [3, 8] was “may increase long-term sensitivity to thermal pain; also recorded: increased long-term thermal pain sensitivity”.

B2: NT4: neurotrophin 4, a TrkB ligand and inducer of neuronal differentiation (protein)
chain: GVSETAPASRRGELAVCDAVSGWVTDRRTAVDLRGREVEVLGEVPAAGGSPLRQYFFETRCKADNAEEGGPGAGGGGCRGVDRRHWVSECKAKQSYVRALTADAQGRVGWRWIRIDTACVCTLLSRTGRA
B2 was tested, and the “pain reported by the patient” value ([5]; after 2 weeks) was “decreased pain”, the “pain reported by the patient” value ([5]; after 3-4 weeks) was “no pain” and the “pain reported by the patient” value ([5]; after 4-5 days) was “increased pain”. For the same molecule, the “time after which the increase in pain subsides” value ([5]; injected into the spinal canal every other day, with continued treatment) was 7 to 10 days.
